These are literature values, as cited in article PMC4041481.

In the data set the target is His37 (UniProt position 37, IIGILHLILWI). The note with it: M2 tetramer assembled in a lipid bilayer.

For “Matrix protein 2 (M2 proton channel) (Influenza A virus (strain not stated))”, the pKa (usually the pH at which an ionisable group is half protonated) is below 5.0.
